For the test, the target named is Homo sapiens full-length TRPV4 (hTRPV4) with C-terminal FLAG-tag and 10xHis-tag (human) (UniProt Q9HBA0). Description: cryo-EM structure.
Chain of UniProt Q9HBA0 (Q9HBA0 whole entry): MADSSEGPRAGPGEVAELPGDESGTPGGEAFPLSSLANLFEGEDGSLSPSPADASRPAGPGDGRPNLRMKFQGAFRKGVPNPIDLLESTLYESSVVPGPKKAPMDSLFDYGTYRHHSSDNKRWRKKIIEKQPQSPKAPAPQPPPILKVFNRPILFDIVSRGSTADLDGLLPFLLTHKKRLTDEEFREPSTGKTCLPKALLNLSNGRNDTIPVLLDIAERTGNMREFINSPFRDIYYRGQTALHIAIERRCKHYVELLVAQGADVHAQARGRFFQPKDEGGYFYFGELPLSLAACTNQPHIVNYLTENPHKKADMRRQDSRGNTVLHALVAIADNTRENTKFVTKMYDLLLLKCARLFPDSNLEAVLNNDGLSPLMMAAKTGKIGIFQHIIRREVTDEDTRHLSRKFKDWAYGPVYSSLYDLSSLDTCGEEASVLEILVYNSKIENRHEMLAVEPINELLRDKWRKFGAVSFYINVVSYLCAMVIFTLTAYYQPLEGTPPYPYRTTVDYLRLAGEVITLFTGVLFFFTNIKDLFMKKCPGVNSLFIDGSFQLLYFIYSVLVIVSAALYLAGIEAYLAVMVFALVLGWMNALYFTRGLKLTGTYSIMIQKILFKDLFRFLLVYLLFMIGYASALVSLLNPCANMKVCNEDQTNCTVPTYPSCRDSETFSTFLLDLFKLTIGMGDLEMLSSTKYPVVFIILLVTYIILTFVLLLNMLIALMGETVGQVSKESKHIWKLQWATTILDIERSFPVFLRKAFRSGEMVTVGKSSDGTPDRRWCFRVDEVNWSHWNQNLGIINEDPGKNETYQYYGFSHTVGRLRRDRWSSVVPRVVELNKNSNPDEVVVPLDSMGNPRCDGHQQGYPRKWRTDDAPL

Substance “endogenous RhoA copurified with overexpressed TRPV4 (from UniProt P61586 1-193) (natural protein)” returned a stoichiometry N (RhoA per TRPV4 subunit) of 1.

These data come from publication doi:10.1101/2023.03.15.532784.
